The results in this text go back to PMC8444507.

Assay [1] has as its target SARS-CoV-2 spike receptor-binding domain (S-RBD), wild-type (SARS-CoV-2) (UniProt P0DTC2).
Assay [2] has as its target SARS-CoV spike receptor-binding domain (S-RBD), wild-type (SARS-CoV) (UniProt P59594).

For “ACE2[W27/Y330]-Fc (from UniProt Q9BYF1 19-615) (Fc fusion)”, in assay [1], the IC50 of entry inhibition, wild-type SARS-CoV-2 pseudovirus on HEK293T-ACE2 cells was determined as 0.25 mg/L. In addition, the IC50 of entry inhibition, SARS-CoV pseudovirus on HEK293T-ACE2 cells in assay [2] came out at 1.04 mg/L.

With “ACE2[W19/Y330]-Fc (from UniProt Q9BYF1 19-615) (Fc fusion)”, the IC50 of entry inhibition, wild-type SARS-CoV-2 pseudovirus on HEK293T-ACE2 cells in assay [1] was found to be 0.09 mg/L. This substance yielded an IC50 of entry inhibition, SARS-CoV pseudovirus on HEK293T-ACE2 cells in assay [2] of 0.34 mg/L.

Substance “ACE2[W19/W27/Y330]-Fc (from UniProt Q9BYF1 19-615) (Fc fusion)” yielded an IC50 of entry inhibition, wild-type SARS-CoV-2 pseudovirus on HEK293T-ACE2 cells in assay [1] of 0.53 mg/L. The IC50 of entry inhibition, SARS-CoV pseudovirus on HEK293T-ACE2 cells in assay [2] worked out at 0.49 mg/L.
